This note sets out measurements from patent US20220372120A1 (GEMINI THERAPEUTICS SUB, published 2022).

Experiment [1] addresses purified C3b (Complement Technologies) (UniProt P01024). Briefly: SPR (Biacore T200, 37 C), C3b amine-coupled to chip, pdFH injected alone, equilibrium analysis. Background: Surface plasmon resonance follows binding to a sensor surface in real time, without labels.
In experiment [2] the target is T1, Human purified factor H (human, UniProt P08603 19-1231). Nature of the experiment: cell-based or functional assay.
For experiment [3], the target named is T1, Human purified factor H. Briefly: cell-based or functional assay. This is another data set of the same source.
Experiment [4] concerns the target T1, Human purified factor H. Nature of the experiment: SPR (BiaCore T200), antibody captured on Protein A or Protein G chip, full length FH flowed over. On the procedure:
To determine binding affinity of Antibodies 1-4, surface plasmon resonance (SPR) experiments were performed using a BiaCore T200 (GE Healthcare) and CMS sensor chips (GE Healthcare) in accordance with the manufacturer's instructions. Briefly, Antibodies […] or anti-FHR-1.3B4 were captured onto a Protein A or Protein G coupled chip and full length FH was flown over the captured moAB at decreasing concentrations.

Experiment [5] concerns the target T1, Human purified factor H. Nature of the experiment: cell-based or functional assay. The source holds these as a separate data set.
Experiment [6] concerns the target T1, Human purified factor H. Nature of the experiment: cell-based or functional assay. The source holds these as a separate data set.

What is called Kd is the equilibrium constant for the complex coming apart. As a reminder, the koff is the first-order rate constant of dissociation. Higher therefore signals fast dissociation. A word on the kon: it is the rate constant with which the complex forms. Low values mean slow association, high ones fast association.

Where “and” joins values, the source holds several entries; their conditions need not be identical. Equal values may be shown once.

T1 sequence (P08603 19-1231): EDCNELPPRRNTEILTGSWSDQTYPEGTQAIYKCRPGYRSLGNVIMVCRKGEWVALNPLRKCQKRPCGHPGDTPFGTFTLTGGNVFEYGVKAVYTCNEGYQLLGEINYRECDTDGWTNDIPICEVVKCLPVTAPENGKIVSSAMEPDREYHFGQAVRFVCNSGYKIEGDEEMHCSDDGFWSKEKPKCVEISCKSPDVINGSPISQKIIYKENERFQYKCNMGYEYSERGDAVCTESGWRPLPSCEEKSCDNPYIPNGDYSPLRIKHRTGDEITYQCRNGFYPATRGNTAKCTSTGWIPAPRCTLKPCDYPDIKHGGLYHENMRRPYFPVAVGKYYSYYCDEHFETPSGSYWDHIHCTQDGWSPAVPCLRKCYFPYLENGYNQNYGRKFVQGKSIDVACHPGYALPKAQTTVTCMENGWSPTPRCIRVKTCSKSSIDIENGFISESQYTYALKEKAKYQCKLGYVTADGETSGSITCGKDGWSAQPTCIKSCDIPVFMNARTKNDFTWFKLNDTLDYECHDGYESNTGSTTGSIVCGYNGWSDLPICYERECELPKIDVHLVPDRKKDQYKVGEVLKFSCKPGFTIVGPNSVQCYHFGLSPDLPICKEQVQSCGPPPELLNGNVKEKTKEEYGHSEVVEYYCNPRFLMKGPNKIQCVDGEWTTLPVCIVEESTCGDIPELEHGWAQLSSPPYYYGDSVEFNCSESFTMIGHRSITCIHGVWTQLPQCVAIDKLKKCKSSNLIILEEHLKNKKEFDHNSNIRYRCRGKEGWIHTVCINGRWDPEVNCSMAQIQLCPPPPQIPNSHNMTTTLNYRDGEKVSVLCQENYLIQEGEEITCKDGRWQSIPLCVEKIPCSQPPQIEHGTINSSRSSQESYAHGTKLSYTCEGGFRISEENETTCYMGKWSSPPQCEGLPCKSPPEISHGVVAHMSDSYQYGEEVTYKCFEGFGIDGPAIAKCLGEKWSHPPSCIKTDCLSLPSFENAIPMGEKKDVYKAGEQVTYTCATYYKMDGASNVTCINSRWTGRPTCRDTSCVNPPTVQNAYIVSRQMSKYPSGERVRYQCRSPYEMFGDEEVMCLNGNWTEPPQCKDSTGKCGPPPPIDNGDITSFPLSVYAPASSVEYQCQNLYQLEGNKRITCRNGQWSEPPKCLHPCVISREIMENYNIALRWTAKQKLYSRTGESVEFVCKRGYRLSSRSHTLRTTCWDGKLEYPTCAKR

Turning to “Human purified factor H (from UniProt P08603 19-1231)”, the Kd in experiment [1] is 1300 nM.

B1: FHR-1.3B4 (antibody, V domains shown)
VH: QVQLRQSGPGLVQPSQSLSITCTVSGFSLTNYGVYWVRQSPGKGLEWLGVIWSGGTTDYSAAFISRLSISKDNSKSQVFFKMNSLQADDTAIYYCARNFGNYAMDYWGQGTSVTVSS
VL: QIVLSQSPTILSASPGEKVTMTCRASSSVTYMHWYQQKPGSSPKPWIYATSNLASGVPARFSGSGSGTSYSLTISRVEAEDAATYYCQQRSSSNPLTFGAGTKLELK
notes: Mouse monoclonal antibody raised in BALB/c mice against recombinant human FHR-1 (hybridoma); kappa light chain implied by capture on rat anti-mouse kappa RM19; also called anti-FHR-1.3B4; anti-FHR-1 3B4
As for B1, the “IC50 of inhibition of C3b deposition on LPS, 10% normal human serum” value (from here on “IC50 of inhibition … 10% normal human serum”) in experiment [2] is 38 nM and 5.7 µg/ml. Also, in experiment [3], the “IC50 of inhibition of SRBC hemolysis, 10% human serum with anti-FH.09” value is 11.4 ug/ml and 76 nM. In experiment [4], the dissociation constant (Kd) is 0.91 nM, the koff stood at 5.32e-05 s⁻¹ and the kon stood at 59500 M⁻¹ s⁻¹.

B2: Antibody 1 (antibody, V domains shown)
VH: QVQLQESGPGLVKPSQTLSLTCTVSGFSLTNYGVYWIRQHPGKGLEWIGVVWSGGTTEFNPSLKSRVTISKDTSKNQVSLKLSSVTAADTAVYYCARNFGNYAMDYWGQGTSVTVSS
VL: DIQLTQSPSSLSASVGDRVTITCKASSSVTYLHWYQQKPGKAPKPLIYATSNLASGVPSRFSGSGSGTDFTLTISSLQPEDFATYYCQHRSSSNPLTFGAGTKLELK
As to B2, in experiment [5], the “IC50 of inhibition of C3b deposition on LPS, Replicate 1” value (from here on “IC50 of inhibition … Replicate 1”) is 3.5 µg/ml and 23.4 nM; the “IC50 of inhibition of C3b deposition on LPS, Replicate 2” value (“IC50 of inhibition … Replicate 2” below) was 2.26 µg/ml and 15.1 nM. Moreover, in experiment [6], the “IC50 of inhibition of SRBC hemolysis, first replicate” value (shortened to “IC50 of inhibition … first replicate”) is 10.7 µg/ml and 71.3 nM; the “IC50 of inhibition of SRBC hemolysis, second replicate” value (from here on “IC50 of inhibition … second replicate”) is 10.9 µg/ml and 72.7 nM. The “IC50 of inhibition … 10% normal human serum” value in experiment [2] was 2.26 µg/ml and 15.1 nM. Further, the “IC50 of inhibition of SRBC hemolysis, 10% human serum with anti-FH.09” value in experiment [3] is 10.6 ug/ml and 70.7 nM. In experiment [4], this molecule yielded a dissociation constant Kd of 0.5 nM, a koff of 2.67e-05 s⁻¹ and an association rate constant (kon) of 53800 M⁻¹ s⁻¹.

B3: Antibody 3 (antibody, V domains shown)
VH: QVQLQESGPGLVKPSQTLSLTCTVSGFSLTNYGVYWIRQHPGKGLEWIGVVWSGGTTEFNPSLKSRVTISKDTSKNQVSLKLSSVTAADTAVYYCARNFGNYAMDYWGQGTSVTVSS
VL: DIQLTQSPSSLSASVGDRVTITCRASTSVTYMHWYQQKPGKAPKPLIYASSNLASGVPSRFSGSGSGTDFTLTISSLQPEDFATYYCQHRSSSNPLTFGAGTKLELK
Turning to B3, in experiment [5], the “IC50 of inhibition … Replicate 1” value was 4.14 µg/ml and 27.6 nM; the “IC50 of inhibition … Replicate 2” value is 3.47 µg/ml and 23.1 nM. For the same molecule, in experiment [6], the “IC50 of inhibition … first replicate” value was 11.1 µg/ml and 74 nM; the “IC50 of inhibition … second replicate” value was 9.1 µg/ml and 60.7 nM. Besides, the “IC50 of inhibition … 10% normal human serum” value in experiment [2] was 3.47 µg/ml and 23.1 nM. Besides, the “IC50 of inhibition of SRBC hemolysis, 10% human serum with anti-FH.09” value in experiment [3] was 9.4 ug/ml and 62.7 nM. Further, in experiment [4], binding was characterised by a dissociation constant (Kd) of 0.85 nM, the koff was 4.07e-05 s⁻¹ and the on-rate (kon) stood at 48500 M⁻¹ s⁻¹.

B4: Antibody 2 (antibody, V domains shown)
VH: QVQLQESGPGLVKPSQTLSLTCTVSGFSLTNYGVYWIRQHPGKGLEWIGVIWSGGTTEYNPSMKSRVTISKDTSKNQVSLKLSSVTAADTAVYYCARNFGNYAMDFWGQGTSVTVSS
VL: DIQLTQSPSSLSASVGDRVTITCKASSSVTYLHWYQQKPGKAPKPLIYATSNLASGVPSRFSGSGSGTDFTLTISSLQPEDFATYYCQHRSSSNPLTFGAGTKLELK
As for B4, in experiment [5], the “IC50 of inhibition … Replicate 1” value was 3.68 µg/ml and 24.5 nM; the “IC50 of inhibition … Replicate 2” value was 2.82 µg/ml and 18.8 nM. Further, in experiment [6], the “IC50 of inhibition … first replicate” value is 11.4 µg/ml and 76.3 nM; the “IC50 of inhibition … second replicate” value is 10.4 µg/ml and 69.3 nM. Also, the “IC50 of inhibition … 10% normal human serum” value in experiment [2] was 2.82 µg/ml and 18.8 nM. The “IC50 of inhibition of SRBC hemolysis, 10% human serum with anti-FH.09” value in experiment [3] was 10.1 ug/ml and 67.3 nM. In experiment [4], this molecule gave a Kd of 0.52 nM, a koff of 3.06e-05 s⁻¹ and an on-rate (kon) of 58500 M⁻¹ s⁻¹.

B5: Antibody 4 (antibody, V domains shown)
VH: QVQLQESGPGLVKPSQTLSLTCTVSGFSLTNYGVYWIRQHPGKGLEWIGVIWSGGTTEYNPSMKSRVTISKDTSKNQVSLKLSSVTAADTAVYYCARNFGNYAMDFWGQGTSVTVSS
VL: DIQLTQSPSSLSASVGDRVTITCRASTSVTYMHWYQQKPGKAPKPLIYASSNLASGVPSRFSGSGSGTDFTLTISSLQPEDFATYYCQHRSSSNPLTFGAGTKLELK
For B5, in experiment [5], the “IC50 of inhibition … Replicate 1” value was 4.34 µg/ml and 28.9 nM; the “IC50 of inhibition … Replicate 2” value was 3.51 µg/ml and 23.4 nM. For the same molecule, in experiment [6], the “IC50 of inhibition … first replicate” value was 11.5 µg/ml and 76.5 nM; the “IC50 of inhibition … second replicate” value was 11.8 µg/ml and 78.5 nM. Further, the “IC50 of inhibition … 10% normal human serum” value in experiment [2] was 3.51 µg/ml and 23.4 nM. The “IC50 of inhibition of SRBC hemolysis, 10% human serum with anti-FH.09” value in experiment [3] was 11.5 ug/ml and 76.7 nM. In experiment [4], this molecule came in with a Kd of 0.58 nM, a koff of 3.14e-05 s⁻¹ and an association rate constant (kon) of 55300 M⁻¹ s⁻¹.
